Measured values taken from PMC11500106, “Characterization of Medusavirus encoded histones reveals nucleosome-like structures and a unique linker histone”.

Target: eH1.0 (Mus musculus, UniProt P10922 1-194)
Experiment: fluorescence polarization; unit inferred from the titration (0-10 uM; fitted as EC50); FP: 20 mM Tris pH 7.5, 1 mM DTT, 1 mM EDTA, room temperature, 1 h, 10 nM DNA; reconstitution: salt-gradient dialysis 2 M to 50 mM NaCl
Conditions: protein: recombinant; label: 5' 6-FAM; only one strand printed (Results call it a 35-mer)

Sequence of eH1.0 (P10922 whole entry): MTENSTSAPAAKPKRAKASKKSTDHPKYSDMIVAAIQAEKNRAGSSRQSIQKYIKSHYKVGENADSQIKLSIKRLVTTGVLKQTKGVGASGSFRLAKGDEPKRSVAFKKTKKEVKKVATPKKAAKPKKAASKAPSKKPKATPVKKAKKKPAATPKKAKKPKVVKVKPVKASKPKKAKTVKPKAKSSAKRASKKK

B1: FP 25-mer DNA (mixed)
DNA: GCAGCTGGCACGACAGGTATGAATC
Kd: 18.1 nM
